The Km is the substrate concentration at which the rate is half of its maximum.

The series is described as follows: FatA enzymatic kinetic parameters with oleoyl-CoA as substrate. In kind it is biochemical. The note with it: Michaelis-Menten; for Km: read-out: Km (μM) - best fit. How it is done: For the determination of FatA enzymatic kinetic parameters with oleoyl-CoA as substrate, assays are carried out essentially as described above for the testing of inhibitor compounds but with some changes to the method as follows. Oleoyl CoA is omitted from the assay master mix and added as a separate component to achieve final concentration of 40 μM, 23.5 μM. 13.8 μM, 8.1 μM, 4.8 μM, 2.8 μM and 1.7 μM (i.e. 1.7× dilution scheme). The level of enzymatic activity is determined from the slope of the progress curve (initial linear rates) using assay values measured at 0, 20, 40, 60, 90 and 120 s after addition of the enzyme. Kinetic parameters are then calculated using the Michaelis-Menten model as implemented in GraphPad Prism software.
FatA variant enzymes were prepared from 1 L E coli grows and assays carried out to determine enzyme kinetics as described in Example 1.

Where a chain is given by its changes, count along the chain named. In names and notes the source's numbering stands.

B1: Y217L: Arabidopsis FatA acyl-ACP thioesterase variant, substitution Y217L relative to SEQ ID NO: 1 (protein, listed as Arabidopsis thaliana)
chain: MLKLSCNVTDSKLQRSLLFFSHSYRSDPVNFIRRRIVSCSQTKKTGLVPLRAVVSADQGSVVQGLATLADQLRLGSLTEDGLSYKEKFVVRSYEVGSNKTATVETIANLLQEVGCNHAQSVGFSTDGFATTTTMRKLHLIWVTARMHIEIYKYPAWGDVVEIETWCQSEGRIGTRRDWILKDSVTGEVTGRATSKWVMMNQDTRRLQKVSDDVRDELLVFCPQEPRLAFPEENNRSLKKIPKLEDPAQYSMIGLKPRRADLDMNQHVNNVTYIGWVLESIPQEIVDTHELQVITLDYRRECQQDDVVDSLTTTTSEIGGTNGSATSGTQGHNDSQFLHLLRLSGDGQEINRGTTLWRKKPSS
As to B1, the “kcat (s^−1) - best fit” value was found to be 1.7 s⁻¹ and the Km is 4.7 µM.

B2: A144Y: Arabidopsis FatA acyl-ACP thioesterase variant, substitution A144Y relative to SEQ ID NO: 1 (protein, listed as Arabidopsis thaliana)
chain: B1 chain with A144Y, L217Y
For the molecule B2, the “kcat (s^−1) - best fit” value worked out at 11.5 s⁻¹ and the Km amounted to 3.9 µM.

B3: N269W: Arabidopsis FatA acyl-ACP thioesterase variant, substitution N269W relative to SEQ ID NO: 1 (protein, listed as Arabidopsis thaliana)
chain: B1 chain with L217Y, N269W
Consider B3, for which the “kcat (s^−1) - best fit” value was found to be 0.7 s⁻¹ and the Km was found to be 1 µM.

B4: L218C: Arabidopsis FatA acyl-ACP thioesterase variant, substitution L218C relative to SEQ ID NO: 1 (protein, listed as Arabidopsis thaliana)
chain: B1 chain with L217Y, L218C
On to B4, for which the “kcat (s^−1) - best fit” value was found to be 1.1 s⁻¹ and the Km turned out to be 0.8 µM.

B5: V121N: Arabidopsis FatA acyl-ACP thioesterase variant, substitution V121N relative to SEQ ID NO: 1 (protein, listed as Arabidopsis thaliana)
chain: B1 chain with V121N, L217Y
B5: the “kcat (s^−1) - best fit” value came out at 0.8 s⁻¹ and the Michaelis-Menten constant (Km) was 7.1 µM.

B6: A118V: Arabidopsis FatA acyl-ACP thioesterase variant, substitution A118V relative to SEQ ID NO: 1 (protein, listed as Arabidopsis thaliana)
chain: B1 chain with A118V, L217Y
In the case of B6, the “kcat (s^−1) - best fit” value amounted to 4.5 s⁻¹ and the Km turned out to be 2.4 µM.

B7: C221F: Arabidopsis FatA acyl-ACP thioesterase variant, substitution C221F relative to SEQ ID NO: 1 (protein, listed as Arabidopsis thaliana)
chain: B1 chain with L217Y, C221F
For the molecule B7, the “kcat (s^−1) - best fit” value turned out to be 1.5 s⁻¹ and the Km is 4.3 µM.

B8: G114S: Arabidopsis FatA acyl-ACP thioesterase variant, substitution G114S relative to SEQ ID NO: 1 (protein, listed as Arabidopsis thaliana)
chain: B1 chain with G114S, L217Y
In the case of B8, the “kcat (s^−1) - best fit” value amounted to 2.3 s⁻¹ and the Km was determined as 2.8 µM.

B9: S168R: Arabidopsis FatA acyl-ACP thioesterase variant, substitution S168R relative to SEQ ID NO: 1 (protein, listed as Arabidopsis thaliana)
chain: B1 chain with S168R, L217Y
Take B9: the “kcat (s^−1) - best fit” value worked out at 1.3 s⁻¹ and the Km was found to be 3 µM.

B10: F123N: Arabidopsis FatA acyl-ACP thioesterase variant, substitution F123N relative to SEQ ID NO: 1 (protein, listed as Arabidopsis thaliana)
chain: B1 chain with F123N, L217Y
For the molecule B10, the “kcat (s^−1) - best fit” value was 0.3 s⁻¹ and the Km stood at 14.6 µM.

B11: F123C: Arabidopsis FatA acyl-ACP thioesterase variant, substitution F123C relative to SEQ ID NO: 1 (protein, listed as Arabidopsis thaliana)
chain: B1 chain with F123C, L217Y
With B11, the “kcat (s^−1) - best fit” value was determined as 0.3 s⁻¹ and the Km was 4.8 µM.

B12: N269Y: Arabidopsis FatA acyl-ACP thioesterase variant, substitution N269Y relative to SEQ ID NO: 1 (protein, listed as Arabidopsis thaliana)
chain: B1 chain with L217Y, N269Y
As for B12, the “kcat (s^−1) - best fit” value turned out to be 6.1 s⁻¹ and the Km is 4 µM.

B13: F220H: Arabidopsis FatA acyl-ACP thioesterase variant, substitution F220H relative to SEQ ID NO: 1 (protein, listed as Arabidopsis thaliana)
chain: B1 chain with L217Y, F220H
As to B13, the “kcat (s^−1) - best fit” value was 2.0 s⁻¹ and the Km is 3.2 µM.

B14: S168C: Arabidopsis FatA acyl-ACP thioesterase variant, substitution S168C relative to SEQ ID NO: 1 (protein, listed as Arabidopsis thaliana)
chain: B1 chain with S168C, L217Y
For the molecule B14, the “kcat (s^−1) - best fit” value amounted to 1.2 s⁻¹ and the Km stood at 6.2 µM.

These data come from patent US12173301B2, “Weed control methods and related compositions and plants” (Syngenta Crop Protection AG, priority 2019, dated 2024).
